Measured values reported in the nanobody polyreactivity screen of Harvey et al. (2022).

Experiment: yeast display, Sf9 membrane polyspecificity reagent, FACS + sequencing; frameworks hold sequencing errors
Outline: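 Using colony PCR, genes from sorted yeast display clones were amplified, then sequenced on MiSeq at 2 × 250 and filtered by CDR length. The clones had been stained with 10% biotinylated, detergent-solubilized Sf9 membrane reagent for 1 hour at 4 °C and sorted by FACS into low and high (top ~1%) gates on anti-HA and streptavidin fluorescence. Polyreactivity labels come from the gate of origin.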

| Sequence | polyreactivity (PSR sort gate) |
| --- | --- |
| QVQLVESGGGLVQAGGSLRLSCAASGRIFSYYAMGWYRQAPGKERELVASISRSGGSTYYANSVKGRFTISRDNAKNTVYLQMNSLKPEDTAVYYCNAEARYTGFAYSYFNSDYWGQGTQVTVSS | low polyreactivity |
| QVQLVESGGGLVQAGGSLRLSCAASGRIFSYYAMGWYRQAPGKERELVATINSGGSTNYADSVKGRFTISRDNAKNTVYLQMNSLKPEDTAVYYCAASPVWWYDYWGQGTQVTVSS | low polyreactivity |
| QVQLVESGGGLVQAGGSLRLSCAASGRIFSYYAMGWYRQAPGKERELVAVISRRGDNTYYADSVKGRFTISRDNAKNTVYLQMNSLKPEDTAVYYCAAYSWYAKDFDYWGQGTQVTVSS | high polyreactivity |
| QVQLVESGGGLVQAGGSLRLSCAASGRIFSYYAMGWYRQAPRKERELVAAITWSGGSTYYADSVKGRFTISRDNAKNTVYLQMNSLKPEDTAVYYCAADRRRWLYYGYDYWGQGTQVTVSS | high polyreactivity |
| QVQLVESGGGLVQAGGSLRLSCAASGRIFSYYTMGWYRQAPGKERELVAAITGSGGTTYYADSVKGRFTISRDNAKNTVYLQMNSLKPEDTAVYYCAARGYYRWAPYADWRFNYWGQGTQVTVSS | high polyreactivity |
| QVQLVESGGGLVQAGGSLRLSCAASGRIFTANVMGWYRQAPGKERELVAAIDYSGGSTYYADSVKGRFTISRDNAKNTVYLQMNSLKPEDTAVYYCNRDDYADYYHLEYDYWGQGTQVTVSS | low polyreactivity |
| QVQLVESGGGLVQAGGSLRLSCAASGRIFTAYAMGWYRQAPGKERELVAAISSGDSTYYADSVKGRFTISRDNAKNTVSLQMNSLKPEDTAVYYCATGVYPDFEYDSWGQGTQVTVSS | low polyreactivity |
| QVQLVESGGGLVQAGGSLRLSCAASGRIFTDYTMGWYRQAPGKERELVAAISYSGGSTYYADSVKGRFTISRDNAKNSVYLQMNSLKPEDTAVYYCNRDPQKYRWIPRYDYWGHGTQVTVSS | low polyreactivity |
| QVQLVESGGGLVQAGGSLRLSCAASGRIFTFYAMGWYRQAPGKERELVAAISSGGSTYYADSVKGRFTISRDNAKNTVYLQMHSLKPEDTAVYYCAAEPVWYADYDYWGQGTQVTVSS | low polyreactivity |
| QVQLVESGGGLVQAGGSLRLSCAASGRIFTFYAMGWYRQAPGKERELVAAITSGGSTYYADSVKGRFTISRDNAKNTVYLQMNSLKPEDTAVYYCNALHHTQHDYWGQGTQVTVSS | low polyreactivity |
| QVQLVESGGGLVQAGGSLRLSCAASGRIFTFYAMGWYRQAPGKERELVARISKRGGSTYYADSVKGRFTISRDYAKNTVYLQRNSLKPEDTAVYYCAKAYDPTTYDYWGQGTQVTVSS | high polyreactivity |
| QVQLVESGGGLVQAGGSLRLSCAASGRIFTGNAMGWYRQAPGKERELVAAISRRGTRTYYADSVKGRFTISRDNAKNTVYLQMNSLKPEDTAVYYCATVLYKAYNDYGYWGQGTQVTVSS | high polyreactivity |
| QVQLVESGGGLVQAGGSLRLSCAASGRIFTHNAMGGYRQAPGKERELVAAITIGGRTNYADSVKGRFTISRDNAKYTVYLQMNSLKPEDTAVYYCDRRYGTWNAYDYWGQGTLVTVSS | low polyreactivity |
| QVQLVESGGGLVQAGGSLRLSCAASGRIFTHNAMGWYRQAPGKERELVAAITSGGRTTYADSVKGRFTISRDNAKNTVYLQRNSLKPEDTAVYYCNADTGLGSLDFDKRDYWGQGTQVTVSS | low polyreactivity |
| QVQLVESGGGLVQAGGSLRLSCAASGRIFTKYAMGWYRQAPGKERELVATISKRSGSTYYADSVKGRFTISRDNAKNTVYLQMNSLKPEDTAVYYCARTVGYRTLLESDSWGQGTQVTVSS | high polyreactivity |
| QVQLVESGGGLVQAGGSLRLSCAASGRIFTNYAMGWYRQAPGKERELVAAINWDGGSTYYADSVKGRFTISRDNAKNTVYLQMNSLKPVDTAVYYCAAQGGLSEYDYWGQGTQVTVSS | low polyreactivity |
| QVQLVESGGGLVQAGGSLRLSCAASGRIFTRNAMGWCRPAPGKERELVAAITYTGANTYYADSVKGRFTISRDNAKNTVYLQMNSLKPEDTAVYYCAADGRVKGWGQGTQVTVSS | high polyreactivity |
| QVQLVESGGGLVQAGGSLRLSCAASGRIFTRYAMGWSRQAPGKERELVAAISSGGSTYYADSVKGRYTISRDKAKNTVYLQMNSLKPEDTAVYYCAAGTWWWYKFNYWGQGTQVTVSS | high polyreactivity |
| QVQLVESGGGLVQAGGSLRLSCAASGRIFTRYAMGWYCQAPGNDRELVAVIRDGSTYYADSVKGRFTISRDNGKNTVYLQMNSLKPEDTAVYYCRYDIWDWWSGAYDYWGQGTQVTVSS | low polyreactivity |
| QVQLVESGGGLVQAGGSLRLSCAASGRIFTRYAMGWYRQAPGKARELVAAITSSGGRTYYADSVKGRFTISRDNAKNTVYLQMNSLKQEDTAVYYCATGYINSYYYWGQGTQVTVSS | high polyreactivity |
| QVQLVESGGGLVQAGGSLRLSCAASGRIFTRYTMGWYRQAPGKDRELVAAITRGGSTYYADSVKGRFTISRDNANNTVYLQMNSLKPEDTAVYYCATQVWGGRYNYWGQGTQVTVTS | high polyreactivity |
| QVQLVESGGGLVQAGGSLRLSCAASGRIFTRYTMGWYRQAPGKERELVAAISSSDSSTYYADSVKGRFTISRDNAKNTVYLQMNSLKPEDTAVYYCNADRLFYEIYDYGAVRIGYDYWGQGTQVTVSS | low polyreactivity |

| Sequence | polyreactivity (PSR sort gate) |
| --- | --- |
| QVQLVESGGGLVQAGGSLRLSCAASGRIFTSNAMGWYRQAPGKERELVAAISGSGGRTYYADSVKGRFTISRDNAKNTVYLQMNSLKPEDTAVYYCAVGTRVKYDYWGQGTQVTVSS | high polyreactivity |
| QVQLVESGGGLVQAGGSLRLSCAASGRIFTSNAMGWYRQAPGKERELVAAISSSSGSTYYADSVKGRFTISRDNAKNTVSLQMNSLKPEDTAVYYCAARTWRVSGTYKYDYWGQGTQVTVSS | low polyreactivity |
| QVQLVESGGGLVQAGGSLRLSCAASGRIFTSNTMGWYRQAAGKEGELVAAITSSGGSMYYADSVKGRFTISRDNAKNTVYLQMNSLKPEDTAVYYCAADTIGYHYWYDYWGQGTQVTVSS | low polyreactivity |
| QVQLVESGGGLVQAGGSLRLSCAASGRIFTTNAMGWYRQAPGKERELVAAITYSGGTTYYADSVKGRFTISRDNAKNTVYLQLNSLNPEDTAVYYCAADVKFSTPYDYWGQGSQVTVSS | low polyreactivity |
| QVQLVESGGGLVQAGGSLRLSCAASGRIFTTYAMGWYRQAPGKERELVATITTTDTRTYADSVKGRFTISRDNAKNTVYLQMNSLKPEDTAVYYCAKDRLNKGRYYRAASDYWGQGTQVTVSS | low polyreactivity |
| QVQLVESGGGLVQAGGSLRLSCAASGRIFTVNAMGGYRQAPGKERELVAAITFSGANTYYADSVKGRFTISRDNAKNTVFLQMNSLKPEDTAVYYCAGDPPNGAEYYWGQGTQVTVSS | high polyreactivity |
| QVQLVESGGGLVQAGGSLRLSCAASGRIFTVYAMGWYRQAPGKERELVAAISGRGGRTYYADSVKGRFTISRDNAKNTVYLQMNSLKPEDTAVYYCNADTLTLTRPDGDIHTVWMDYWGQGTQVTVSS | low polyreactivity |
| QVQLVESGGGLVQAGGSLRLSCAASGRIFTVYAMGWYRQAPGKERELVAAISSSGGSTYYADSLKGRFTISRDNAKNSVFLQMNSLKPEDTAVYYCAKPRTYDKDKYDYWGQCTQVTVSS | high polyreactivity |
| QVQLVESGGGLVQAGGSLRLSCAASGRIFTVYAMGWYRQAPGKERELVAAITRGGGGTYYADSVKGRFTISRDNAKNTVYFQMNSLKPEETAVYYCAAAYRGDRWSYRVDYWGQGTQVTVSS | high polyreactivity |
| QVQLVESGGGLVQAGGSLRLSCAASGRIFTWYAKGWYRQAPGKERELVAAISWSGGRTYYADSVKGRFTISRDNAKNTVYLQMNSLKPEDTAVYYCNAVPSVRWRYDYWGQGTQVTVSS | high polyreactivity |
| QVQLVESGGGLVQAGGSLRLSCAASGRIFTYDAMGWYRPAPGKERELLATITSGGSTNYADSVKGRFTISRDNAMNTVYLQMNSLKPEDTAVDYCATRKYRVPRSYYWGQGTQVTVSS | high polyreactivity |
| QVQLVESGGGLVQAGGSLRLSCAASGRIFTYNAMGGYRQAPGKESEFVAAISSGGSTTYADSVKGRFTISRDNAKNTVYLQMISLKPEDTAVYYCAARGWRFAIIQYEYWGQGTQVTVSS | low polyreactivity |
| QVQLVESGGGLVQAGGSLRLSCAASGRIFTYYAMGWYRQAPGKERELVAAISSGGSTYYADSVKGRFTISRDNAKNTVYLQMNSLKPEDTAVYYCAADSIYYFPYDYWGQGTQVTVSS | high polyreactivity |
| QVQLVESGGGLVQAGGSLRLSCAASGRIFTYYAMGWYRQAPGKERELVAGISGSGTSTYYADSVKGRFTISRDNAKNTVYLQMNSLKPEDTAVYYCAAIRRQNGLWDYYYWGQGTQVTVSS | low polyreactivity |
| QVQLVESGGGLVQAGGSLRLSCAASGRIFTYYAMGWYRQAPGKERELVATISSSGSTNYADSVKGRFTISRDNAKNTVYLQMNSLKPEDTAVYYSAKKTRRRYDVKYDYWGQGTQVTVSS | low polyreactivity |
| QVQLVESGGGLVQAGGSLRLSCAASGRIFTYYAMGWYRQAPGKVRELVAAISSGGSTYYADSVKGRFTISRDNAKTTVYLQMNSLTPEDTAVYYCAAEPSYYPYLSPTYGYWGQGTQVTVSS | low polyreactivity |
| QVQLVESGGGLVQAGGSLRLSCAASGRIFTYYAMVWYRQAPGKERELVAAITGSGTSTYYADSVKGRFTISRDNAMNTVFLLMNSLKPEDTAVYYCAARNSFSRYYYWGQGTQVTVSS | high polyreactivity |
| QVQLVESGGGLVQAGGSLRLSCAASGRIFTYYGMGWYRQAPGKEWELVAAISSSGDSTFYADSVKGRFTISRDNAKNTVYLQMNSLKPEDTAVYYCAADYYYVWYDYWGQGTQVTVSS | low polyreactivity |
| QVQLVESGGGLVQAGGSLRLSCAASGRIFTYYTKGWSRQAPGKERELVAAITRGGITNYADSVKGRFTISRDNAKNTVYLQMNSLKPEDTAVYYCNAVARVYSEGIRYGYWGQGTQVTVSS | high polyreactivity |
| QVQLVESGGGLVQAGGSLRLSCAASGRIFVDNAMGWYRQAPGKERELVAAITRGGSTYADSVKGRFTISRDNAKNTVYLQMNSLKPEDTAVYYCAADLWSVPFTVYTFGIFYYWGQGTQVTVSS | low polyreactivity |
| QVQLVESGGGLVQAGGSLRLSCAASGRIFVDNTMGWYRQAPGKERELVAVITSGGSTNYADSVKGRFTISRDNAKNTVYLQMNSLKPEDTAVYYCATEPGGYRFDDRPFQYGYWGQGTQVTVSS | low polyreactivity |
